# Laboratory results as given in publication PMC11919738, “Mechanism for Vipp1 spiral formation, ring biogenesis, and membrane repair” (Nature Structural & Molecular Biology, 2024).
# B1: Vipp1 (vesicle-inducing protein in plastids 1) from Nostoc punctiforme (natural protein, UniProt B2J6D9 1-258, looked up)
# chain: MGLFDRIKRVVSSNLNDLVNKAEDPEKMLEQAILEMQEDLVQLRQGVAQAIAAQKRSEKQYNDAQNEINKWQRNAQLALQKGDENLARQALERKKTYTDTSAALKASLDTQSTQVETLKRNLIQLESKISEAKTKKEMLKARITTAKAQEQLQGMVRGMNTSSAMSAFERMEEKVLMQESRAQALGELAGADLETQFAQLEGGSDVDDELAALKAQMLPPATPVTQAQLPPQQETTPAKSNEVVDAELDSLRKQLDQL
# notes: Vipp1, Nostoc punctiforme, UniProt B2J6D9; model built for amino acids 1-214 in Vipp1L1; Forms polymers (helical filaments, rings, sheets, spirals); the number of subunits is not fixed; RingsHS are the same protein purified with 50 mM NaCl in the SEC buffer; also called IM30; native Vipp1; source: E. coli C43 (DE3) with pspA gene knockout, purified (amylose resin, TEV, Ni-NTA, SEC); not shown: …
# B2: Vipp1-F197K/L200K (Vipp1 interface 3 mutant) (natural protein, Nostoc punctiforme, UniProt B2J6D9 1-258, looked up)
# chain: MGLFDRIKRVVSSNLNDLVNKAEDPEKMLEQAILEMQEDLVQLRQGVAQAIAAQKRSEKQYNDAQNEINKWQRNAQLALQKGDENLARQALERKKTYTDTSAALKASLDTQSTQVETLKRNLIQLESKISEAKTKKEMLKARITTAKAQEQLQGMVRGMNTSSAMSAFERMEEKVLMQESRAQALGELAGADLETQKAQKEGGSDVDDELAALKAQMLPPATPVTQAQLPPQQETTPAKSNEVVDAELDSLRKQLDQL
# notes: Vipp1, Nostoc punctiforme, UniProt B2J6D9, with F197K and L200K; Co-purified with E. coli membrane (lipid bilayer in the filament lumen); source: E. coli C43 (DE3) with pspA gene knockout, purified (amylose resin, TEV, Ni-NTA, SEC); not shown: His6, N-terminal, cleaved; MBP, N-terminal, cleaved
# B3: Vipp1Δα6_(1–219) (Vipp1 with the C-terminal domain truncated) (domain or fragment, Nostoc punctiforme, UniProt B2J6D9 1-219, looked up)
# chain: MGLFDRIKRVVSSNLNDLVNKAEDPEKMLEQAILEMQEDLVQLRQGVAQAIAAQKRSEKQYNDAQNEINKWQRNAQLALQKGDENLARQALERKKTYTDTSAALKASLDTQSTQVETLKRNLIQLESKISEAKTKKEMLKARITTAKAQEQLQGMVRGMNTSSAMSAFERMEEKVLMQESRAQALGELAGADLETQFAQLEGGSDVDDELAALKAQMLP
# notes: model built for amino acids 1-217; also called Vipp1_(Δα6_L2); Vipp1_(Δα6_L3); source: E. coli C43 (DE3) with pspA gene knockout, purified (amylose resin, TEV, Ni-NTA, SEC); not shown: His6, N-terminal, cleaved; MBP, N-terminal, cleaved
# Biological target: the molecule itself
# Assay: cryo-EM structure; helical filaments of purified protein, 60 µM, low-salt SEC buffer, helical reconstruction
row,Protein,binding result
1,B1,binds
2,B2,binds
3,B3,binds
